Molecular target: KPNA2 (Homo sapiens, UniProt P52292)
Test: MST

Kd [µM] | Binder
~1.16 | KLVFFVKRKKKP [NLS-FF-T nucleopeptide]
~31.1 | KLVFF [FF-T nucleopeptide]

— article PMC10903983 (2024)
